Columns and labels:
[1] = biological target: YenA2 (Yersinia entomophaga) (UniProt B6A878); assay: cryo-EM structure; YenTcA pore form inserted into POPC liposomes (1:2 w/w, 3-5 freeze/thaw cycles), single-particle cryo-EM, 11 Å resolution
[2] = biological target: YenA2 (Yersinia entomophaga) (UniProt B6A878); assay: cryo-EM structure; YenTcA soluble pre-pore form, single-particle cryo-EM, 4.4 Å average resolution, C5 symmetry; 0.1 mg/mL in 25 mM Tris, 150 mM NaCl, pH 7.5, with 10 mM NDSB-195

Chain of YenA2 (B6A878 whole entry): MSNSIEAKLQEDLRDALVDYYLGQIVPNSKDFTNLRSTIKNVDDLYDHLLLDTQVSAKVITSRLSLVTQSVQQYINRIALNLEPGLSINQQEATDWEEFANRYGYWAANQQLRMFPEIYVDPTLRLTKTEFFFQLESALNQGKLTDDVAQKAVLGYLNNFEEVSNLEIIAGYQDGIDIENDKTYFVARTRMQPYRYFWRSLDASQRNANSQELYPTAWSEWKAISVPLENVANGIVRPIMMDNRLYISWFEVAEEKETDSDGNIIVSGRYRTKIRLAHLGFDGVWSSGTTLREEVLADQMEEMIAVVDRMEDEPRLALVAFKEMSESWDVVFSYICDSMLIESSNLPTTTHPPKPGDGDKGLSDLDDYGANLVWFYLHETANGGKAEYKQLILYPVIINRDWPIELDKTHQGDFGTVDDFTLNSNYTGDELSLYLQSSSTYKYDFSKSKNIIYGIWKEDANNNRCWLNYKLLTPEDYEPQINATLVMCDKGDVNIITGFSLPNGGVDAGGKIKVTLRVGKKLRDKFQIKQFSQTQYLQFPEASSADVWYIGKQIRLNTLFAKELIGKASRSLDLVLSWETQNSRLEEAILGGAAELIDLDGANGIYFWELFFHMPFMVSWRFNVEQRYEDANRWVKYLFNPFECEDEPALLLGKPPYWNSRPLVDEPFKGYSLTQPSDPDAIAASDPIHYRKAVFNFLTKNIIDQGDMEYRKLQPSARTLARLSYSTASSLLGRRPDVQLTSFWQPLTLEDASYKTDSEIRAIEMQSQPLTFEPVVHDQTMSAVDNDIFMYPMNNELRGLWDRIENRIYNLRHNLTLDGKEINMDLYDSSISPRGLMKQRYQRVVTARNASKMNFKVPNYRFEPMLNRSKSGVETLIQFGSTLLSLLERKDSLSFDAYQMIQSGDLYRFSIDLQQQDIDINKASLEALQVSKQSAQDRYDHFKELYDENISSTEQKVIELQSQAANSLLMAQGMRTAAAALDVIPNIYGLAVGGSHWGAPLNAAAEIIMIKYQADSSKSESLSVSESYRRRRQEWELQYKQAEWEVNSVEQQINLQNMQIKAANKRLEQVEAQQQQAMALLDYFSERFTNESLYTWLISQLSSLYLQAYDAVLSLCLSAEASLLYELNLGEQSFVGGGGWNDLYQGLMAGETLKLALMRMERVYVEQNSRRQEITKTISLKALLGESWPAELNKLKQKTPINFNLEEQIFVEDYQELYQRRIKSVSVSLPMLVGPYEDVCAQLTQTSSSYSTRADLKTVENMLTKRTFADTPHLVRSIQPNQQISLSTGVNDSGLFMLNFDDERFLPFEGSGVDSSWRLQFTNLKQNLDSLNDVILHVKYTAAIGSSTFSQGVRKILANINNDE

## YenA2 (from UniProt B6A878 1-1364) (natural protein)
[1]
  stoichiometry N: 5
[2]
  stoichiometry N: 5

Source: PMC6486591
